# Source: patent EP1731161A1
# Biological target: tumor necrosis factor alpha (TNFα) (rat) (UniProt P16599)
# Experiment: cell-based or functional assay
# Sequence of UniProt P16599 (P16599 80-235 limits assumed): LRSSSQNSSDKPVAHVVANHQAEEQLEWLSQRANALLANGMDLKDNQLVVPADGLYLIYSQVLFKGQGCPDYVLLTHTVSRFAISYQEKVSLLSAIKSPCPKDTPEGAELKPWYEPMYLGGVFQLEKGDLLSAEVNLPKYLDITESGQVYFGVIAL
substance,measurement,value
TNFRII:Fc receptor fragment (from UniProt P20333 23-257) (Fc fusion),SPH release from hypoxic (5 hrs) adult rat cardiomyocytes after pretreatment with TNFRII:Fc (fold reduction),3
